This is an account of results in patent publication US10578620B2, “Methods for detecting molecules in a sample” (The Francis Crick Institute Limited, priority 2013, dated 2020).

This assay deals with pT308 (Akt phosphorylation). In words: Two-site TSA-FRET for pT308 in FFPE human breast tumour, CIP specificity control. As to the method:
TSA-FRET assay for quantification of pT308 was performed on 4-μm sections of two identical FFPE-fixed breast cancer tissue samples.
Following de-waxing and rehydration, sections were subjected to heat antigen retrieval by microwaving in TRIS-EDTA (pH 9.0) buffer, for 10 minutes at 800 W. Sections were then incubated in freshly prepared sodium borohydrate (1 mg/ml in PBS) buffer for 10 min at RT, followed by blocking with 1% BSA/PBS. Tissues sections were incubated with peroxidase suppressor (Thermo Scientific Pierce) for 15 min.
For the two-site TSAFRET assay, the first slide was incubated with mouse anti-panAkt (1:100), and the second slide with mouse anti-panAkt (1:100) and rabbit anti-pT308 (1:200) primary antibodies, for 16 hours at 4° C. The first slide was further immunolabeled with ORG488-conjugated anti-mouse Fab fragment secondary antibody (20 μg/ml). The second slide was immunolabeled with ORG488-conjugated anti-mouse Fab fragment (20 μg/ml) and HRP-conjugated anti-rabbit Fab fragment secondary antibody (10 μg/ml), which was detected by using Alexa-594-TSA assay. […]
The donor lifetimes of ORG488 were determined from at least 10 ROIs of the tumours, each performed in triplicate unless otherwise indicated. The FRET efficiency was calculated as described above (FIG. 4(a)-(c)).

B1: calf intestinal alkaline phosphatase (protein, UniProt P19111 20-506, looked up)
Intestinal-type alkaline …: LVPVEEEDPAFWNRQAAQALDVAKKLQPIQTAAKNVILFLGDGMGVPTVTATRILKGQMNGKLGPETPLAMDQFPYVALSKTYNVDRQVPDSAGTATAYLCGVKGNYRTIGVSAAARYNQCKTTRGNEVTSVMNRAKKAGKSVGVVTTTRVQHASPAGAYAHTVNRNWYSDADLPADAQMNGCQDIAAQLVNNMDIDVILGGGRKYMFPVGTPDPEYPDDASVNGVRKRKQNLVQAWQAKHQGAQYVWNRTALLQAADDSSVTHLMGLFEPADMKYNVQQDHTKDPTLQEMTEVALRVVSRNPRGFYLFVEGGRIDHGHHDDKAYMALTEAGMFDNAIAKANELTSELDTLILVTADHSHVFSFGGYTLRGTSIFGLAPSKALDSKSYTSILYGNGPGYALGGGSRPDVNDSTSEDPSYQQQAAVPQASETHGGEDVAVFARGPQAHLVHGVEEETFVAHIMAFAGCVEPYTDCNLPAPTTATSIPD
notes: phosphatase used as control to verify FRET signal is due to Akt phosphorylation
Turning to B1, the “FRET efficiency (Ef) of panAkt+pT308 in CIP-treated tumour samples” value (CIP 10 units/slide 30 min, untreated Ef=6.0) came to 1.5%. Also, the “change of FRET efficiency of the panAkt+pT308 signal in the CIP-treated condition” value (FIG. 4(c), p<0.0001) is “reduction”.
